B1: Pistol ribozyme (parent)
chain: GGGUCGUUGUUCCAUAAUCGCGUGGAUAUGGCACGCAAGUUUCUACCGGGCACCGUAAAUGUCCGACUGGAGCCGUUCGGGCGGCUAUAAACAGACCUCAGGCCCGAAGCGUGGCGGCACCUGCCGCCGGUGGUAAAAAAGAUCGGAAGAGCACACGUCU

Variants of: B1
Assay: aptazyme ON/OFF ratio, guanine; higher = stronger switching; co-transcriptional cleavage with and without guanine

Variant | aptazyme ON/OFF ratio
U7G U8C G9U U11A C13A | 1.22
U7G U8C G9U U11A C13U | 1.56
U7G U8C G9U U11A C13G | 1.02
U7G U8C G9U C12U C13A | 1.18
U7G U8C G9U C12U C13G | 1.16
U7G U8C G9U C12U C13U | 1.41
U7G U8C G9U U11A C12U C13A | 1.46
U7G U8C G9U U11A C12U C13G | 1.17
U7G U8C G9U U11A C12U C13U | 1.41
U7G U8C U10A C12A C13A | 1.24
U7G U8C U10A C12A C13U | 1.36
U7G U8C U10A C12A C13G | 1.1
U7G U8C G9U U11C C12G C13G | 1.32
U7G U8C G9U U11C C12G C13U | 1.32
U7G U8C G9U U11C C12G C13A | 1.3
U7G U8C G9U U10G U11G C13A | 1.22
U7G U8C G9U U10G U11G C13G | 1.17
U7G U8C G9U U10G U11G C13U | 1.36
U7G U8C G9U U11A C12A C13A | 1.28
U7G U8C G9U U11A C12A C13G | 1.14
U7G U8C G9U U11A C12A C13U | 1.5
U7G U8C G9U U10A C12A | 1.88
U7G U8C G9U U10A C12G | 1.77
U7G U8C G9U U10A C12U | 2.85

Variant | aptazyme ON/OFF ratio
U7G U8C G9U U10G U11A C12A C13U | 1.38
U7G U8C G9U U10G U11A C12A C13G | 1.15
U7G U8C G9U U10G U11A C12A C13A | 1.12
U7G U8C U10A C12G C13G | 1.15
U7G U8C U10A C12G C13A | 1.22
U7G U8C U10A C12G C13U | 1.32
U7G U8C U10A C13A | 1.11
U7G U8C U10A C13G | 1.08
U7G U8C U10A C13U | 1.12
U7G U8C G9U U10A U11G C12G C13U | 1.1
U7G U8C G9U U10A U11G C12G C13G | 1.13
U7G U8C G9U U10A U11G C12G C13A | 1.13
U7G U8C U10A U11A C12A C13A | 1.13
U7G U8C U10A U11A C12A C13G | 1.14
U7G U8C U10A U11A C12A C13U | 1.15
U7G U8C G9C U11G C12U | 1.66
U7G U8C G9C U11G C12G | 1.07
U7G U8C G9C U11G C12A | 1.39
U7G U8C G9U U10C C12G C13G | 1.22
U7G U8C G9U U10C C12G C13U | 1.29
U7G U8C G9U U10C C12G C13A | 1.31
U7G U8C G9U U10A U11A C12G C13A | 1.07
U7G U8C G9U U10A U11A C12G C13G | 1.16
U7G U8C G9U U10A U11A C12G C13U | 1.19

Variant | aptazyme ON/OFF ratio
U7G U8C G9U U10A C12A C13G | 1.17
U7G U8C G9U U10A C12A C13A | 1.18
U7G U8C G9U U10A C12A C13U | 1.24
U7G U8C G9U C12G | 3.03
U7G U8C G9U C12U | 4.27
U7G U8C G9U C12A | 1.35
U7G U8C G9U U10G C13U | 1.24
U7G U8C G9U U10G C13A | 1.24
U7G U8C G9U U10G C13G | 1.27
U7G U8C G9U U11G C13G | 1.05
U7G U8C G9U U11G C13A | 1.32
U7G U8C G9U U11G C13U | 1.41
U7G U8C G9C U11C C12G | 1.34
U7G U8C G9C U11C C12U | 1.78
U7G U8C G9C U11G C12A C13G | 1.33
U7G U8C G9C U11G C12A C13A | 1.14
U7G U8C G9C U11G C12A C13U | 1.23
U7G U8C G9U U10A U11A C12A C13A | 1.29
U7G U8C G9U U10A U11A C12A C13G | 1.11
U7G U8C G9U U10A U11A C12A C13U | 1.32
U7G U8C G9U U10A C13A | 1.35
U7G U8C G9U U10A C13U | 2.29
U7G U8C G9U U10A C13G | 1.08
U7G U8C G9U U10C U11A C12U C13A | 1.72

Variant | aptazyme ON/OFF ratio
U7G U8C G9U U10C U11A C12U C13G | 1.39
U7G U8C G9U U10C U11A C12U C13U | 1.9
U7G U8C G9U U11C C12A | 1.31
U7G U8C G9U U11C C12U | 2.13
U7G U8C G9U U11C C12G | 1.37
U7G U8C G9U U10G U11A C12G C13U | 1.25
U7G U8C G9U U10G U11A C12G C13A | 1.16
U7G U8C G9U U10G U11A C12G C13G | 1.12
U7G U8C G9C U11C C12G C13G | 1.07
U7G U8C G9C U11C C12G C13A | 1.2
U7G U8C G9C U11C C12G C13U | 1.11
U7G U8C G9U U10G U11A C13A | 1.08
U7G U8C G9U U10G U11A C13G | 1.07
U7G U8C G9U U10G U11A C13U | 1.12
U7G U8C U10A U11C C13A | 1.05
U7G U8C U10A U11C C13G | 1.04
U7G U8C U10A U11C C13U | 1.04
U7G U8C G9U U11A C12G C13A | 1.1
U7G U8C G9U U11A C12G C13G | 1.13
U7G U8C G9U U11A C12G C13U | 1.22
U7G U8C G9U U11G C12A C13A | 1.11
U7G U8C G9U U11G C12A C13G | 1.35
U7G U8C G9U U11G C12A C13U | 1.38
U7G U8C G9U U10C U11C C12G C13A | 1.45

Variant | aptazyme ON/OFF ratio
U7G U8C G9U U10C U11C C12G C13G | 1.29
U7G U8C G9U U10C U11C C12G C13U | 1.22
U7G U8C G9C U11G C13A | 1.24
U7G U8C G9C U11G C13G | 1.17
U7G U8C G9C U11G C13U | 1.25
U7G U8C U10A U11A C12G C13A | 1.1
U7G U8C U10A U11A C12G C13G | 1.22
U7G U8C U10A U11A C12G C13U | 1.26
U7G U8C G9U U10G C12A C13G | 1.11
U7G U8C G9U U10G C12A C13U | 1.24
U7G U8C G9U U10G C12A C13A | 1.37
U7G U8C G9U U10C U11A C12G | 1.98
U7G U8C G9U U10C U11A C12A | 2.7
U7G U8C G9U U10C U11A C12U | 2.96
U7G U8C G9U U10G U11A C12G | 1.34
U7G U8C G9U U10G U11A C12U | 1.1
U7G U8C G9U U10G U11A C12A | 1.3
U7G U8C U10A U11A C12A | 1.05
U7G U8C U10A U11A C12G | 1.13
U7G U8C U10A U11A C12U | 1.43
U7G U8C G9U U10C U11G C12U | 2.47
U7G U8C G9U U10C U11G C12G | 1.1
U7G U8C G9U U10C U11G C12A | 1.75
U7G U8C G9C U11G C12U C13A | 1.3

Variant | aptazyme ON/OFF ratio
U7G U8C G9C U11G C12U C13U | 1.37
U7G U8C G9C U11G C12U C13G | 1.33
U7G U8C G9U U10C U11C C12U C13U | 1.27
U7G U8C G9U U10C U11C C12U C13G | 1.41
U7G U8C G9U U10C U11C C12U C13A | 1.55
U7G U8C G9U U10G U11G | 1.55
U7G U8C G9U U10G U11A | 1.21
U7G U8C G9U U10G U11C | 1.15
U7G U8C G9U U11G | 1.36
U7G U8C G9U U11A | 1.8
U7G U8C G9U U11C | 2.88
U7G U8C G9U U10C U11G C12U C13G | 1.21
U7G U8C G9U U10C U11G C12U C13U | 1.28
U7G U8C G9U U10C U11G C12U C13A | 1.34
U7G U8C U10A U11A | 2.71
U7G U8C U10A U11G | 1.29
U7G U8C U10A U11C | 1.04
U7G U8C U10A U11C C12U C13G | 1.12
U7G U8C U10A U11C C12U C13A | 1.13
U7G U8C U10A U11C C12U C13U | 1.07
U7G U8C G9U U10G U11G C12U | 1.35
U7G U8C G9U U10G U11G C12G | 1.31
U7G U8C G9U U10G U11G C12A | 1.31
U7G U8C G9U U10A U11A C13U | 1.79

Variant | aptazyme ON/OFF ratio
U7G U8C G9U U10A U11A C13A | 1.3
U7G U8C G9U U10A U11A C13G | 1.08
U7G U8C G9U U11A C12G | 2.17
U7G U8C G9U U11A C12A | 2.91
U7G U8C G9U U11A C12U | 2.56
U7G U8C G9C U11G C12G C13A | 1.12
U7G U8C G9C U11G C12G C13U | 1.1
U7G U8C G9C U11G C12G C13G | 1.12
U7G U8C G9U C12A C13G | 1.26
U7G U8C G9U C12A C13U | 1.2
U7G U8C G9U C12A C13A | 1.34
U7G U8C G9U U11G C12U C13G | 1.28
U7G U8C G9U U11G C12U C13A | 1.26
U7G U8C G9U U11G C12U C13U | 1.35
U7G U8C G9U U10A U11A C12G | 1.6
U7G U8C G9U U10A U11A C12A | 1.63
U7G U8C G9U U10A U11A C12U | 2.3
U7G U8C G9U U10C U11C C13A | 1.34
U7G U8C G9U U10C U11C C13U | 1.52
U7G U8C G9U U10C U11C C13G | 1.08
U7G U8C G9U U10A U11C C13U | 1.18
U7G U8C G9U U10A U11C C13A | 1.42
U7G U8C G9U U10A U11C C13G | 1.05

— the RNAGym collection of RNA variant scans (doi:10.1021/acssynbio.7b00057)
